Data reported in publication PMC3127848, “Decreased expression of BRCA1 in SK-BR-3 cells is the result of aberrant activation of the GABP Beta promoter by an NRF-1-containing complex”.

Molecular target: T1, recombinant NRF-1 (rNRF-1) (human, UniProt Q16656 1-503)
T1 sequence: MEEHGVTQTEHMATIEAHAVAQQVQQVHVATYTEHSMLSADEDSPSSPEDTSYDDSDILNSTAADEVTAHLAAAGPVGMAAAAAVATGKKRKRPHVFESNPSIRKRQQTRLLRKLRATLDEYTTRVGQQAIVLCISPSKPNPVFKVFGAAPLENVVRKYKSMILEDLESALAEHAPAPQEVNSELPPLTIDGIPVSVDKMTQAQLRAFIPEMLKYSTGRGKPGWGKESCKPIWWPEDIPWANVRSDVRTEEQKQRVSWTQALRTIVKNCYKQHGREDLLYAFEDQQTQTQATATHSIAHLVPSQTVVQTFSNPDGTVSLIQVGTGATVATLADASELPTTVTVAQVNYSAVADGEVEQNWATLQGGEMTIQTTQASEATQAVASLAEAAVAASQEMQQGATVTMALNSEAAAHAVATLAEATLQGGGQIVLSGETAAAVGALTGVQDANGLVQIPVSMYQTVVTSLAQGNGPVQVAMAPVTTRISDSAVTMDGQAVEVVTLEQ
Test: EMSA; 0.03-5 ug protein, concentration-dependent; 25 mM HEPES pH 7.6, 5 mM MgCl2, 34 mM KCl, 50 ug/mL poly dI:dC, 0.5 mg/mL BSA, on ice 15 min; 6% acrylamide 0.25x TBE gel
Conditions: tags: N-terminal MBP fusion (pMAL-c2), chain copies: 2, label: 32P

B1: Gb-270 (dsDNA)
DNA 1: CTGCCGCGCAGGCGCCGGGC
DNA 2: GCCCGGCGCCTGCGCGGCAG
  binding result: binds
